According to patent publication US20230181756A1, “CCR7 ANTIBODY DRUG CONJUGATES FOR TREATING CANCER” (Novartis AG, priority 2020, published 2023):

B1: 674J13.CysMab.DAPA.AURIX2 (conjugate)
heavy: DVQLQESGPGLVKPSQTLSLTCTVSGYSITSGYSWHWIRQHPGKGLEWMAHIHSSGSTNYNPSLKSRITISRDTSKNQFSLKLSSVTAADTAVYYCARGGVQAFAYWGQGTLVTVSSASTKGPSVFPLAPSSKSTSGGTAALGCLVKDYFPCPVTVSWNSGALTSGVHTFPAVLQSSGLYSLSSVVTVPSSSLGTQTYICNVNHKPSNTKVDKRVEPKSCDKTHTCPPCPAPELLGGPSVFLFPPKPKDTLMISRTPEVTCVVVAVSHEDPEVKFNWYVDGVEVHNAKTKPREEQYNSTYRVVSVLTVLHQDWLNGKEYKCKVSNKALAAPIEKTISKAKGQPREPQVYTLPPSREEMTKNQVSLTCLVKGFYPCDIAVEWESNGQPENNYKTTPPVLDSDGSFFLYSKLTVDKSRWQQGNVFSCSVMHEALHNHYTQKSLSLSPGK
light: EIVLTQSPATLSASPGERVTMSCSASSSVIYMHWYQQKPGQAPRRWIYDTSKLASGVPARFSGSGSGTDYTLTISSMEPEDAAVYYCQQWSSNPLTFGQGTKLEIKRTVAAPSVFIFPPSDEQLKSGTASVVCLLNNFYPREAKVQWKVDNALQSGNSQESVTEQDSKDSTYSLSSTLTLSKADYEKHKVYACEVTHQGLSSPVTKSFNRGEC
B2: 121G12 humanized CysMab: humanized anti-CCR7 antibody 121G12, CysMab, Fc wild type (antibody, V domains shown)
VH: EVQLVESGGGLVKPGGSLRLSCAASGFTFSTYAMSWVRQAPGKGLEWVATISDAGSYSYYPDNVKGRFTISRDNAKNSLYLQMNSLRAEDTAVYYCARRGSRYEEYYVMDYWGQGTTVTVSS
VL: EIVLTQSPATLSVSPGERVTLSCRASQSISNNLHWYQQKPGQAPRLLIKYASQSISGIPARFSGSGSGTDFTLTISSVEPEDFGVYFCQQSSSWLTFGQGTKLEIK

Key:
NCI-H82 = assay: ADC cell viability assay (CellTiter-Glo, four days); assay type: cell-based; conditions: NCI-H82 (Small cell lung cancer), CCR7 receptor levels 0
Experimental: (§1) Cytotoxic effects after binding of directly conjugated antibodies (ADCs) with various payloads and their internalization into CCR7(+) cells were studied by assessing cell viability after four days of treatment. Three fold dilutions of the ADCs were added to 384-well bottom white plates in triplicates ([…]). […] Cells were harvested (adherent cells were detached with Accutase) and resuspended to approximately 2×10^4 cells/ml. Cells were added to 384-well plates on top of the antibody (20 μl/well). The plates were incubated for four days at 37° C. and 5% CO2. Subsequently, 20 µl/well of CellTiter-Glo solution (CellTiter-Glo® Luminescent Cell Viability Assay; Promega, #G7571) was prepared and added to the cells. Cell viability was determined by the luminescence signal, which was measured after 10 min of incubation at 22° C. and 400 rpm with the Envision reader. IC50 values were calculated using the Graphpad Prism software.
(§2) To assess the ADCs for target-specificity and receptor-level dependency, ADC activity was tested across cell lines with different CCR7 receptor levels. […] Cell lines were chosen based on similar sensitivity to payload.

DND-41 = assay: as above; assay type: cell-based; conditions: DND-41 (T cell leukemia), CCR7 receptor levels 1,700
Experimental: as §1, §2

SR786 = assay: as above; assay type: cell-based; conditions: SR786, CCR7 receptor levels ~28,000
Experimental: as §1, §2

CML-T1 = assay: as above; assay type: cell-based; conditions: CML-T1, CCR7 receptor levels ~29,000
Experimental: as §1, §2

KE97 = assay: as above; assay type: cell-based; conditions: KE97, CCR7 receptor levels ~100,000
Experimental: as §1

DEL = assay: as above; assay type: cell-based; conditions: CCR7 receptor levels ~100,000
Experimental: as §1

[1] = biological target: T1, human CCR7 (NIH3T3.hCCR7 cells) (Homo sapiens, UniProt P32248); assay: FACS binding to cell surface expressed CCR7
T1 construct: Full length human, cyno and mouse CCR7 genes were synthesized; expressed in transfected cells; host or cells: NIH/3T3 (retroviral transduction)
T1 sequence (P32248 25-378): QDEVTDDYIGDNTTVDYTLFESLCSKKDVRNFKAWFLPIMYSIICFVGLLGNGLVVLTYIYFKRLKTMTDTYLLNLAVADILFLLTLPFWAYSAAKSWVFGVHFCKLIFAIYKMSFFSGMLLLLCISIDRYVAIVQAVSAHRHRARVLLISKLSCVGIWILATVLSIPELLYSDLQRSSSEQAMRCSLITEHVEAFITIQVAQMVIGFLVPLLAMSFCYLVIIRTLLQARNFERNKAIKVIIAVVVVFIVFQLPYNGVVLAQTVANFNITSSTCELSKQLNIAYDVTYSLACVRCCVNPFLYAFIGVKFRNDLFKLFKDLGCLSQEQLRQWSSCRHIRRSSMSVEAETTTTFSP
Experimental: (§3) The affinity of various antibodies and ADCs to CCR7 and its species orthologues was determined using FACS. Purified IgGs were titrated to determine EC50 values for binding to cell surface expressed CCR7.
(§4) For this purpose, CCR7 positive cells were harvested (adherent cells were detached with Accutase), washed twice with FACS buffer (PBS/3% FCS/0.02% sodium azide) and diluted to approximately 2×10^6 cells/ml in FACS buffer. All subsequent steps were done on ice to prevent internalization of the receptor. 100 μl cell suspension/well were transferred into 96-well U-bottom plates (Falcon). 2×10^5 cells/well were incubated with a serial dilution of antibody concentrations of the anti-CCR7 antibody-of-interest ranging across several logs, starting at a high of 100 nM for 60 minutes at 4° C., gently shaking. […] After a final wash, cells were resuspended in 100 μl of FACS buffer containing 0.2 μg/ml DAPI followed by readout on the flow cytometry machine (BD LSRFortessa Cell Analyzer; Cat #647177). Mean fluorescence intensity (MFI) of live, single cells was calculated in Flowjo 10.0.8 and exported into Graphpad Prism6 for EC50 determination.
Selectivity was assessed by measuring apparent binding affinities to isogenic cell pairs engineered to overexpress CCR7 as well as cell lines expressing CCR7 paralogs, e.g., CCR9, CCR6, CXCR4 and CCR8. […]

[2] = system: PF382 cells (CCR7−/CCR9+/CCR6+); assay: FACS binding, selectivity
Experimental: as §3, §4
(§5) Selectivity was assessed by measuring apparent binding affinities to isogenic cell pairs engineered to overexpress CCR7 as well as cell lines expressing CCR7 paralogs, e.g., CCR9, CCR6, CXCR4 and CCR8.

NIH3T3 cells = assay: FACS binding, selectivity
Experimental: as §3, §4, §5

CXCR4 (HEK293-CXCR4) = biological target: T2, CXCR4 (HEK293-CXCR4) (Homo sapiens, UniProt P61073); assay: FACS binding, selectivity (CCR7 paralogs)
T2 construct: expressed in transfected cells; host or cells: HEK293
T2 sequence (P61073 whole entry, species assumed): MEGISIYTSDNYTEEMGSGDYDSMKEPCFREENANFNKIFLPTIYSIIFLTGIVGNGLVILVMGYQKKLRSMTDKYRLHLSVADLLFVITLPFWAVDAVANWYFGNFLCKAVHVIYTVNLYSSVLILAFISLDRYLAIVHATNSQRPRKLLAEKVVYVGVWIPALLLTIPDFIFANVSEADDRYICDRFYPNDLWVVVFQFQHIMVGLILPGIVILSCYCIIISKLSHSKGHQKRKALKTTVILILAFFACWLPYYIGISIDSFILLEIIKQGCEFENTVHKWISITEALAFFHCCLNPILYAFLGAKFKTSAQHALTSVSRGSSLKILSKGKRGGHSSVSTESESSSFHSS
Experimental: as §3, §4, §5

CCR8 (CHO-CCR8) = biological target: T3, CCR8 (CHO-CCR8) (Homo sapiens, UniProt P51685); assay: FACS binding, selectivity (CCR7 paralogs)
T3 construct: expressed in transfected cells; host or cells: CHO
T3 sequence (P51685 whole entry, species assumed): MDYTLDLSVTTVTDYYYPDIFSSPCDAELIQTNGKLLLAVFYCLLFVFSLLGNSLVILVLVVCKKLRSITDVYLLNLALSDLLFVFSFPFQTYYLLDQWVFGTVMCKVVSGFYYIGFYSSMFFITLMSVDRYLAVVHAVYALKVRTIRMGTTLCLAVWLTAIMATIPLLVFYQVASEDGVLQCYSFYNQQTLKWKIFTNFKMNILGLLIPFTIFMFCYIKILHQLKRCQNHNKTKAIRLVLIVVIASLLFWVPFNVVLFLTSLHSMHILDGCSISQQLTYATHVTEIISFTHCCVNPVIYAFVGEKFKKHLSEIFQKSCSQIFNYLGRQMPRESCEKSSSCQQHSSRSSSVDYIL
Experimental: as §3, §4, §5

[3] = system: CCR7 and CD20 expressing JVM2 cells; assay: surrogate ADCC reporter assay (Jurkat-V158 effector cells); assay type: cell-based; conditions: JVM2 target cells and Jurkat-V158 effector cells
Experimental: Capacity of candidate antibodies to mediate ADCC was assessed using a surrogate ADCC reporter assay. CCR7 and CD20 expressing JVM2 cells were used as target cells. JVM2 cells were washed and re-suspended at 8×10^4 cells/ml cells/ml. Effector cells in this assay were a Jurkat cell line stably expressing CD16V158 and an NFAT dependent luciferase reporter (Jurkat-V158); expression of luciferase is a surrogate for canonical ADCC signaling through CD16. Briefly, Jurkat-V158 cells grown in suspension were spun down to remove spent media, the pellet was resuspended in assay media and adjusted to 1.6×10^6 cells/ml cells/mL. Mix equal volumes of effector and target cells to make a master mix of cells yielding a target to effector cell ratio of 1:5 or 1:20. A titration of antibody was diluted in assay media with a final top concentration of 50 ug/mL in the assay well. 12.5 uL of Ab solution was added to a 384 well round bottom plate and then 12.5 ul of the master cell mix was added. Antibody and cells were mixed well by pipetting and incubated for 4 hours at 37° C. in 5% CO2. Following incubation, 15 uL of Bright Glo substrate (Promega #G7572) was added to each well and shaken for 5 min at RT at 1050 rpm. Luminescent signal was read on the Envision plate reader (Perkin Elmer). […]

| Molecule | ADC activity in cell viability assay; IC50 (nM) (NCI-H82) | AMAX, cell viability assay (DND-41) [% AMAX] | AMAX, cell viability assay (SR786) [%] | AMAX, cell viability assay (CML-T1) [%] | AMAX, cell viability assay (KE97) [%] | AMAX, cell viability assay (DEL) [%] | Apparent FACS binding (at 5 ug/ml) [1] | Apparent FACS binding (at 5 ug/ml) [2] | Apparent FACS binding (at 5 ug/ml) (NIH3T3 cells) | Apparent FACS binding (at 5 ug/ml) (CXCR4 (HEK293-CXCR4)) | Apparent FACS binding (at 5 ug/ml) (CCR8 (CHO-CCR8)) | ADCC activity; IC50 (nM) [3] |
| --- | --- | --- | --- | --- | --- | --- | --- | --- | --- | --- | --- | --- |
| B1 | No killing | <20 | 90 | 60 | > 95 | > 95 |  |  |  |  |  |  |
| B2 |  |  |  |  |  |  | Binding | No binding | No binding | No binding | No binding | Yes, but insufficient |
